Laboratory results taken from publication PMC8096241.

B1: probe D (dsDNA)
DNA 1: AATAATCGTTCGCAACAACAAATATTACAATTATTAATGCAAACGACATATTTATTTAAATTA
DNA 2: TAATTTAAATAAATATGTCGTTTGCATTAATAATTGTAATATTTGTTGTTGCGAACGATTATT
B2: probe F (dsDNA)
DNA 1: AATAATCGTTCGCAACAACAAATATTACAAT
DNA 2: ATTGTAATATTTGTTGTTGCGAACGATTATT

Key:
CapR = target: T1, CapR (Vibrio cholerae phage satellite PLE1, UniProt M1R2X8 1-139); experiment: EMSA
T1 sequence: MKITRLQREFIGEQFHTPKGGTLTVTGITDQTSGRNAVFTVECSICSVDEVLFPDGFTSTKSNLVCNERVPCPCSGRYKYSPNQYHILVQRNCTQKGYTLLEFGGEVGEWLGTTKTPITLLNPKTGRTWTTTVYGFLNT

[1] = target: T2, CapR C43/46/72/74S (4xmut) (Vibrio cholerae phage satellite PLE1, UniProt M1R2X8 1-139, C43S;C46S;C72S;C74S); experiment: EMSA
T2 sequence: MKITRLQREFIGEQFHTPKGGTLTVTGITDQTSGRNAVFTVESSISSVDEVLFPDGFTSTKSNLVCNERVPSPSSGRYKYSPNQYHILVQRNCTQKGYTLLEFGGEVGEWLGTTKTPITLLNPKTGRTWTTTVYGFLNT

| Binder | binding result (CapR) | binding result [1] |
| --- | --- | --- |
| B1 | binds | no binding |
| B2 | binds |  |
